Assay results taken from US11649460B2, “DNA aptamers, method for inhibiting human galectin-1 and method of treating a mammal in need thereof” (priority 2020, dated 2023).

How the values were obtained:
galectins = conditions: in vitro; cited from earlier work
[1] = tested on: seven cell lines of solid human tumors; experiment: SRB antiproliferative assay, panel of tumor lines; assay type: cell-based; conditions: read-out: 50% growth inhibitory concentrations (IC50); all tumor cell lines assessed
Source text: (§1) The XLSTAT software was used to determine the IC50, TGI and LC50 values using the four-parameter logistic curve equation.

[2] = tested on: SK-BR-3 human breast adenocarcinoma; experiment: SRB cell proliferation (cytotoxicity) assay, SK-BR-3
Source text: as §1

[3] = biological target: T1, native human galectin-1 (hGal1) (Homo sapiens, UniProt P09382); experiment: Thermofluor thermal shift assay (TSA), native galectin-1; assay type: binding; conditions: 5 μM protein
T1 construct: 42; made in house; host or cells: E. coli strain M-15
T1 sequence (P09382 2-135): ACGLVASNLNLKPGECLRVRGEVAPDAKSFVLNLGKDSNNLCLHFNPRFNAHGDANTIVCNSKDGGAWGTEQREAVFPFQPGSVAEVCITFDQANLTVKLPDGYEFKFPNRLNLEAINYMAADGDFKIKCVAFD
Protocol: In an attempt to screen among the selected aptamers that better interact with hGal1, differential scanning fluorimetry (Termofluor) was used to characterize their binding to its target. Among all the selected aptamers, SEQ ID NO.: 4 seemed to have a more intense effect on hGal1 thermoshift and so was chosen for further analysis. The selected aptamer had its interaction evaluated with native and alkylated galectin-1. […] The respective thermal displacements were evaluated as a function of an increasing concentration of SEQ ID NO.: 4 (FIG. 1).
Thermofluor experiments were performed on an Mx3005 RT-PCR (Agilent Technologies) using the SYPRO® Orange dye (492/610 nm) (Invitrogen) as fluorescent probe. The purified (native and alkylated) protein samples were incubated for 30 min with increasing concentration of the molecules of interest, centrifuged, and submitted to the thermal denaturation assay, totalizing four distinct experiments. In a 96-well plate (Agilent Technologies) 20 μl of the reaction containing 5 μM of each protein in buffer PBS 1× and 5× SYPRO® Orange were heated from 25° C. to 95° C. at a rate of 1° C./min. The experimental result was processed as in the protocol previously described and the melting temperature was obtained using GraphPad Prism software (www.graphpad.com).

[4] = tested on: DU-145 human prostate carcinoma cell line; experiment: SRB cell proliferation (cytotoxicity) assay, DU-145
Source text: as §1

[5] = biological target: T2, hGal1-induced hemagglutination of red blood cells (Homo sapiens, UniProt P09382); experiment: Hemagglutination inhibition assay, native hGal1; assay type: cell-based; conditions: native Gal1 5 μM
T2 construct: 42; made in house; host or cells: E. coli strain M-15
T2 sequence (P09382 2-135): as above
Protocol: Hemagglutination Inhibition Assay
Hemagglutination assay was adopted to assess the capacity of SEQ ID NO.: 4 in inhibiting the lectin cross-linking aggregation of red blood cells (RBC), as previously described. Briefly, using a 96-well microplates appropriate amounts of 5 μM hGal1 were blended with 50 μL of aptamer in an increasing concentrations manner (0-40 μM) in PBS 1× buffer (pH 7.4). Following, 50 μL of 3% purified type B+ RBC in PBS. After 2 h of room temperature incubation, the plate was photographed and the hemagglutination area was estimated by area calculator Sketchandcalc™ and the results were expressed as relative agglutination.

[6] = tested on: OVCAR-3 human ovarian adenocarcinoma cell line; experiment: SRB cell proliferation (cytotoxicity) assay, OVCAR-3
Source text: as §1

[7] = tested on: NHF human foreskin skin fibroblasts; experiment: in vitro
Source text: as §1

[8] = tested on: HT-29 human colorectal adenocarcinoma; experiment: SRB cell proliferation (cytotoxicity) assay, HT-29
Source text: as §1

OVCAR-3 cell line = experiment: Synergism test with cisplatin, OVCAR-3; conditions: cisplatin 3 μM
Source text: For the analysis of cell proliferation, the non-clonogenic method of sulforodamine B (SRB) was used, a protein dye that binds to the basic amino acid residues of cell proteins that were viable at the time of the fixation process. Therefore, the greater the amount of SRB bound per compartment, the less the antiproliferative activity of the item under study.

[9] = tested on: MCF-7 human breast adenocarcinoma cell line; experiment: SRB cell proliferation (cytotoxicity) assay, MCF-7
Source text: as §1

[10] = tested on: A-375 human malignant melanoma; experiment: SRB cell proliferation (cytotoxicity) assay, A-375
Source text: as §1

[11] = tested on: HCT 116 human colorectal carcinoma; experiment: SRB cell proliferation (cytotoxicity) assay, HCT 116
Source text: as §1

1-methyl derivative of LacNac
Kd (galectins): 70 µM

B1: AGCTGACACAGCAGGTTGGTGCCAACAAGAAAAGAAACCGTTACAGAAGACACTACAGAATAAGTGAAAAGCCGAGTCGAGCAATCTCGAAAT (nucleic acid)
DNA: AGCTGACACAGCAGGTTGGTGCCAACAAGAAAAGAAACCGTTACAGAAGACACTACAGAATAAGTGAAAAGCCGAGTCGAGCAATCTCGAAAT
modifications: chemistry not given here
IC50 [1]: < 25 µM | Relative cell viability (%) of test items ([2]; 0.781 µM): 98.0% | Relative cell viability (%) of test items ([2]; 1.562 µM): 99.1% | Relative cell viability (%) of test items ([2]; 3.125 µM): 113.9% | Relative cell viability (%) of test items ([2]; 6.25 µM): 95.4% | Relative cell viability (%) of test items ([2]; 12.5 µM): 90.0% | Relative cell viability (%) of test items ([2]; 25 µM): 50.2% | Relative cell viability (%) of test items ([2]; 50 µM): −8.6% | Relative cell viability (%) of test items ([2]; 100 µM): −66.5% | TGI: Concentration for total inhibition of cell growth ([2]; SK-BR-3): 45.137 µM | IC50 ([2]; read-out: IC50: Concentration to inhibit 50% of cell growth, SK-BR-3): 26 µM | CC50 ([2]; read-out: LC50: Concentration for 50% cell death, SK-BR-3): 78.6 µM | variation of denaturation temperature (Tm) of native hGal1 [3]: greater variation | Relative viability (%) of test items ([4]; 0.781 µM): 94.8% | Relative viability (%) of test items ([4]; 1.562 µM): 106.3% | Relative viability (%) of test items ([4]; 3.125 µM): 104.4% | Relative viability (%) of test items ([4]; 6.25 µM): 105.3% | Relative viability (%) of test items ([4]; 12.5 µM): 92.2% | Relative viability (%) of test items ([4]; 25 µM): 72.4% | Relative viability (%) of test items ([4]; 50 µM): 32.5% | Relative viability (%) of test items ([4]; 100 µM): −39.4% | TGI: Concentration for total inhibition of cell growth ([4]; DU-145): 69.568 µM | IC50 ([4]; read-out: IC50: Concentration to inhibit 50% of cell growth, DU-145): 39.3 µM | CC50 ([4]; read-out: LC50: Concentration for 50% cell death, DU-145): > 100 µM | inhibitory effect on galectin-induced hemagglutination [5]: better effect | Relative viability (%) of test items ([6]; 0.781 µM): 79.9% | Relative viability (%) of test items ([6]; 1.562 µM): 90.2% | Relative viability (%) of test items ([6]; 3.125 µM): 77.9% | Relative viability (%) of test items ([6]; 6.25 µM): 59.2% | Relative viability (%) of test items ([6]; 12.5 µM): 34.7% | Relative viability (%) of test items ([6]; 25 µM): 16.9% | Relative viability (%) of test items ([6]; 50 µM): −3.7% | Relative viability (%) of test items ([6]; 100 µM): −51.1% | TGI: Concentration for total inhibition of cell growth ([6]; OVCAR-3): 39.740 µM | IC50 ([6]; read-out: IC50: Concentration to inhibit 50% of cell growth, OVCAR-3): 9.46 µM | CC50 ([6]; read-out: LC50: Concentration for 50% cell death, OVCAR-3): > 100 µM | Relative viability (%) of test items ([7]; 0.781 µM): 103.3% | Relative viability (%) of test items ([7]; 1.562 µM): 101.8% | Relative viability (%) of test items ([7]; 3.125 µM): 93.5% | Relative viability (%) of test items ([7]; 6.25 µM): 96.1% | Relative viability (%) of test items ([7]; 12.5 µM): 101.4% | Relative viability (%) of test items ([7]; 25 µM): 66.8% | Relative viability (%) of test items ([7]; 50 µM): 24.3% | Relative viability (%) of test items ([7]; 100 µM): −32.9% | TGI: Concentration for total inhibition of cell growth ([7]; NHF): 64.820 µM | IC50 ([7]; read-out: IC50: Concentration to inhibit 50% of cell growth, NHF): 35.7 µM | CC50 ([7]; read-out: LC50: Concentration for 50% cell death, NHF): > 100 µM | Relative cell viability (%) of test items ([8]; 0.781 µM): 90.8% | Relative cell viability (%) of test items ([8]; 1.562 µM): 93.7% | Relative cell viability (%) of test items ([8]; 3.125 µM): 103.0% | Relative cell viability (%) of test items ([8]; 6.25 µM): 94.2% | Relative cell viability (%) of test items ([8]; 12.5 µM): 78.3% | Relative cell viability (%) of test items ([8]; 25 µM): 32.7% | Relative cell viability (%) of test items ([8]; 50 µM): 15.7% | Relative cell viability (%) of test items ([8]; 100 µM): −71.9% | TGI: Concentration for total inhibition of cell growth ([8]; HT-29): 53.711 µM | IC50 ([8]; read-out: IC50: Concentration to inhibit 50% of cell growth, HT-29): 25.1 µM | CC50 ([8]; read-out: LC50: Concentration for 50% cell death, HT-29): 85.8 µM | effect on the profile of antiproliferative activity in association with cisplatin (OVCAR-3 cell line): substantially improved | Relative viability (%) of test items ([9]; 0.781 µM): 86.4% | Relative viability (%) of test items ([9]; 1.562 µM): 85.8% | Relative viability (%) of test items ([9]; 3.125 µM): 83.0% | Relative viability (%) of test items ([9]; 6.25 µM): 74.2% | Relative viability (%) of test items ([9]; 12.5 µM): 63.0% | Relative viability (%) of test items ([9]; 25 µM): 47.1% | Relative viability (%) of test items ([9]; 50 µM): 25.6% | Relative viability (%) of test items ([9]; 100 µM): −29.0% | TGI: Concentration for total inhibition of cell growth ([9]; MCF-7): 70.609 µM | IC50 ([9]; read-out: IC50: Concentration to inhibit 50% of cell growth, MCF-7): 24.3 µM | CC50 ([9]; read-out: LC50: Concentration for 50% cell death, MCF-7): > 100 µM | Relative cell viability (%) of test items ([10]; 0.781 µM): 92.6% | Relative cell viability (%) of test items ([10]; 1.562 µM): 84.5% | Relative cell viability (%) of test items ([10]; 3.125 µM): 87.7% | Relative cell viability (%) of test items ([10]; 6.25 µM): 74.2% | Relative cell viability (%) of test items ([10]; 12.5 µM): 81.1% | Relative cell viability (%) of test items ([10]; 25 µM): 65.8% | Relative cell viability (%) of test items ([10]; 50 µM): 51.6% | Relative cell viability (%) of test items ([10]; 100 µM): −72.1% | TGI: Concentration for total inhibition of cell growth ([10]; A-375): 74.279 µM | IC50 ([10]; read-out: IC50: Concentration to inhibit 50% of cell growth, A-375): 47.9 µM | CC50 ([10]; read-out: LC50: Concentration for 50% cell death, A-375): 93.1 µM | Relative cell viability (%) of test items ([11]; 0.781 µM): 95.9% | Relative cell viability (%) of test items ([11]; 1.562 µM): 97.5% | Relative cell viability (%) of test items ([11]; 3.125 µM): 99.9% | Relative cell viability (%) of test items ([11]; 6.25 µM): 96.1% | Relative cell viability (%) of test items ([11]; 12.5 µM): 69.4% | Relative cell viability (%) of test items ([11]; 25 µM): 27.9% | Relative cell viability (%) of test items ([11]; 50 µM): 6.3% | Relative cell viability (%) of test items ([11]; 100 µM): −47.3% | TGI: Concentration for total inhibition of cell growth ([11]; HCT 116): 47.447 µM | IC50 ([11]; read-out: IC50: Concentration to inhibit 50% of cell growth, HCT 116): 20.2 µM | CC50 ([11]; read-out: LC50: Concentration for 50% cell death, HCT 116): > 100 µM
